Bridges are numbered along the chain shown (N, C = ends). Where no end group is shown, it is not given here.

To fix the notation:
T1: CKII substrate peptide RRREEETEEE (optimized consensus domain for CKII phosphorylation)
T1 peptide: RRREEETEEE

This assay deals with T1, CKII substrate peptide RRREEETEEE …. The experiment in a line: cell-based or functional assay.
Consider CFQPLTPLCRC (disulfide 1-11) [cyclic peptide (j) CFQPLTPLCRC], for which the “inhibition of CKII phosphorylation of the substrate peptide (32P, cpm on filters)” value (shortened to “inhibition”) is 80%.
Regarding CSSCQNSPALC (disulfide 1-11) [cyclic peptide (b) CSSCQNSPALC], the “inhibition” value came to 80%.
The same measure for CQIPQRTATRC (disulfide 1-11 (inferred)) [cyclic peptide (c) CQIPQRTATRC]: 80%; for CWMSPRHLGTC (disulfide 1-11 (inferred)) [cyclic peptide (e) CWMSPRHLGTC]: 80%.
Then CAKQRTDPGYC (disulfide 1-11 (inferred)) [cyclic peptide (d) CAKQRTDPGYC], with 80%; and CQSYHELLLQC (disulfide 1-11 (inferred)) [cyclic peptide (k) CQSYHELLLQC], with 80%; and CPLVSLRDHSC (disulfide 1-11 (inferred)) [cyclic peptide (h) CPLVSLRDHSC], with 80%.
Then CHYIAGTVQGC (disulfide 1-11 (inferred)) [cyclic peptide (g) CHYIAGTVQGC], with 80%; and CKQSYLHHLLC (disulfide 1-11 (inferred)) [cyclic peptide (i) CKQSYLHHLLC], with 80%.
On to CSVRQGPVQKC (disulfide 1-11 (inferred)) [cyclic peptide (a) CSVRQGPVQKC], for which the “inhibition” value turned out to be 80%.
With CRNCTVIQFSC (disulfide 1-11) [cyclic peptide (f) CRNCTVIQFSC], the “inhibition” value was determined as 80%.

(Values after US20090005294A1 (CENTRO DE INGENIERIA GENETICA Y BIOTECNOLOGIA, published 2009).)
